The record followed here is patent publication US20240083958A1, “G PROTEIN PEPTIDOMIMETICS” (VRIJE UNIVERSITEIT BRUSSEL, priority 2020, published 2024).

Like-named read-outs stand apart in the source and are kept apart here. Bridge positions count the residues as written; N and C are the ends. Square brackets hold non-standard residues; d marks the D form. S5 = C=CCCC[C@](C)(N)C(=O)O

Holding throughout (experiment): cell-based or functional assay
The target in experiment [1] is T1, human β2AR (human, UniProt P07550 2-365).
Experiment [2] concerns the target T1, human β2AR. This is another data set of the same source.
In experiment [3] the target is T1, human β2AR. The source holds these as a separate data set.
In experiment [4] the target is T1, human β2AR. This is another data set of the same source.
Experiment [5] deals with T1, human β2AR. The source holds these as a separate data set.
The target in experiment [6] is T1, human β2AR. The source holds these as a separate data set.
For experiment [7], the target named is T1, human β2AR. This is another data set of the same source.
The target of experiment [8] is T1, human β2AR. The source holds these as a separate data set.

B1: compound 26 (peptide)
peptide: Ac-FN[S5]CRD[S5]IQRMHLRQYELL-OH
modifications: staple 3-7
SMILES: CC[C@H](C)[C@H](NC(=O)[C@]1(C)CCCC=CCCC[C@](C)(NC(=O)[C@H](CC(N)=O)NC(=O)[C@H](Cc2ccccc2)NC(C)=O)C(=O)N[C@@H](CS)C(=O)N[C@@H](CCCNC(=N)N)C(=O)N[C@@H](CC(=O)O)C(=O)N1)C(=O)N[C@@H](CCC(N)=O)C(=O)N[C@@H](CCCNC(=N)N)C(=O)N[C@@H](CCSC)C(=O)N[C@@H](Cc1c[nH]cn1)C(=O)N[C@@H](CC(C)C)C(=O)N[C@@H](CCCNC(=N)N)C(=O)N[C@@H](CCC(N)=O)C(=O)N[C@@H](Cc1ccc(O)cc1)C(=O)N[C@@H](CCC(=O)O)C(=O)N[C@@H](CC(C)C)C(=O)N[C@@H](CC(C)C)C(=O)O
Consider B1, for which, in the experiment with human β2AR [1], the “Shift (averaged)” value turned out to be 2. Moreover, in the experiment with human β2AR [2], the “IC50 (nM) of isoproterenol, [3H]-DHA RLA, peptidomimetic present” value (“IC50 (nM) of isoproterenol, [3H]-DHA RLA” for short) was 305 nM and the Shift was found to be 2.

B2: compound 7 (peptide)
peptide: H-FNDCRD[S5]IQR[S5]HLRQYELL-OH
modifications: staple 7-11
SMILES: CC[C@H](C)[C@@H]1NC(=O)[C@@](C)(NC(=O)[C@H](CC(=O)O)NC(=O)[C@H](CCCNC(=N)N)NC(=O)[C@H](CS)NC(=O)[C@H](CC(=O)O)NC(=O)[C@H](CC(N)=O)NC(=O)[C@@H](N)Cc2ccccc2)CCCC=CCCC[C@@](C)(C(=O)N[C@@H](Cc2c[nH]cn2)C(=O)N[C@@H](CC(C)C)C(=O)N[C@@H](CCCNC(=N)N)C(=O)N[C@@H](CCC(N)=O)C(=O)N[C@@H](Cc2ccc(O)cc2)C(=O)N[C@@H](CCC(=O)O)C(=O)N[C@@H](CC(C)C)C(=O)N[C@@H](CC(C)C)C(=O)O)NC(=O)[C@H](CCCNC(=N)N)NC(=O)[C@H](CCC(N)=O)NC1=O
In the case of B2, the “Shift (averaged)” value with human β2AR [1] came out at 2. Also, in the experiment with human β2AR [3], the “IC50 (nM) of isoproterenol, [3H]-DHA RLA” value is 417 nM and the Shift is 2.

B3: compound 25 (peptide)
peptide: Ac-FN[S5]CRD[S5]IQRMHLRQYELL-OH
modifications: bridges not given here
On to B3, for which, in the experiment with human β2AR [1], the “Shift (averaged)” value amounted to 2. For the same molecule, in the experiment with human β2AR [2], the “IC50 (nM) of isoproterenol, [3H]-DHA RLA” value was 485 nM and the Shift was 1.

B4: compound 66 (peptide)
peptide: QRMHLRQYEXL
HELM: PEPTIDE1{[ac].Q.R.M.H.L.R.Q.Y.E.[Cha].L}$$$$V2.0
SMILES: CSCC[C@H](NC(=O)[C@H](CCCNC(=N)N)NC(=O)[C@H](CCC(N)=O)NC(C)=O)C(=O)N[C@@H](Cc1c[nH]cn1)C(=O)N[C@@H](CC(C)C)C(=O)N[C@@H](CCCNC(=N)N)C(=O)N[C@@H](CCC(N)=O)C(=O)N[C@@H](Cc1ccc(O)cc1)C(=O)N[C@@H](CCC(=O)O)C(=O)N[C@@H](CC1CCCCC1)C(=O)N[C@@H](CC(C)C)C(=O)O
For B4, in the experiment with human β2AR [4], the “IC50 (nM) of isoproterenol, [3H]-DHA RLA” value amounted to 551 nM and the Shift turned out to be 1. The “Shift (averaged)” value in the experiment with human β2AR [5] came to 2.

B5: compound 23 (peptide)
peptide: Ac-FNECRDKIQRMHLRQYELL-OH
Turning to B5, in the experiment with human β2AR [1], the “Shift (averaged)” value is 3. For the same molecule, in the experiment with human β2AR [2], the “IC50 (nM) of isoproterenol, [3H]-DHA RLA” value amounted to 270 nM.

B6: compound 82 (peptide)
peptide: FNDCRDIIQRMHLRQXELL
HELM: PEPTIDE1{[ac].F.N.D.C.R.D.I.I.Q.R.M.H.L.R.Q.[Cha].E.L.L}$$$$V2.0
SMILES: CC[C@H](C)[C@H](NC(=O)[C@H](CC(=O)O)NC(=O)[C@H](CCCNC(=N)N)NC(=O)[C@H](CS)NC(=O)[C@H](CC(=O)O)NC(=O)[C@H](CC(N)=O)NC(=O)[C@H](Cc1ccccc1)NC(C)=O)C(=O)N[C@H](C(=O)N[C@@H](CCC(N)=O)C(=O)N[C@@H](CCCNC(=N)N)C(=O)N[C@@H](CCSC)C(=O)N[C@@H](Cc1c[nH]cn1)C(=O)N[C@@H](CC(C)C)C(=O)N[C@@H](CCCNC(=N)N)C(=O)N[C@@H](CCC(N)=O)C(=O)N[C@@H](CC1CCCCC1)C(=O)N[C@@H](CCC(=O)O)C(=O)N[C@@H](CC(C)C)C(=O)N[C@@H](CC(C)C)C(=O)O)[C@@H](C)CC
Regarding B6, in the experiment with human β2AR [5], the “Shift (averaged)” value was 32. In the experiment with human β2AR [6], the “IC50 (nM) of isoproterenol, [3H]-DHA RLA” value came to 25.6 nM and the Shift came to 32.

B7: compound 4 (peptide)
peptide: FNDCRDEIQRKHLRQYELL
HELM: PEPTIDE1{F.N.D.C.R.D.E.I.Q.R.K.H.L.R.Q.Y.E.L.L}$PEPTIDE1,PEPTIDE1,7:R3-11:R3$$$V2.0
SMILES: CC[C@H](C)[C@@H]1NC(=O)[C@@H](NC(=O)[C@H](CC(=O)O)NC(=O)[C@H](CCCNC(=N)N)NC(=O)[C@H](CS)NC(=O)[C@H](CC(=O)O)NC(=O)[C@H](CC(N)=O)NC(=O)[C@@H](N)Cc2ccccc2)CCC(=O)NCCCC[C@@H](C(=O)N[C@@H](Cc2c[nH]cn2)C(=O)N[C@@H](CC(C)C)C(=O)N[C@@H](CCCNC(=N)N)C(=O)N[C@@H](CCC(N)=O)C(=O)N[C@@H](Cc2ccc(O)cc2)C(=O)N[C@@H](CCC(=O)O)C(=O)N[C@@H](CC(C)C)C(=O)N[C@@H](CC(C)C)C(=O)O)NC(=O)[C@H](CCCNC(=N)N)NC(=O)[C@H](CCC(N)=O)NC1=O
For B7, the “Shift (averaged)” value with human β2AR [1] turned out to be 4. Further, in the experiment with human β2AR [7], the “IC50 (nM) of isoproterenol, [3H]-DHA RLA” value stood at 202 nM and the Shift stood at 4.

B8: compound 24 (peptide)
peptide: FNECRDKIQRMHLRQYELL
HELM: PEPTIDE1{[ac].F.N.E.C.R.D.K.I.Q.R.M.H.L.R.Q.Y.E.L.L}$PEPTIDE1,PEPTIDE1,4:R3-8:R3$$$V2.0
SMILES: CC[C@H](C)[C@H](NC(=O)[C@@H]1CCCCNC(=O)CC[C@H](NC(=O)[C@H](CC(N)=O)NC(=O)[C@H](Cc2ccccc2)NC(C)=O)C(=O)N[C@@H](CS)C(=O)N[C@@H](CCCNC(=N)N)C(=O)N[C@@H](CC(=O)O)C(=O)N1)C(=O)N[C@@H](CCC(N)=O)C(=O)N[C@@H](CCCNC(=N)N)C(=O)N[C@@H](CCSC)C(=O)N[C@@H](Cc1c[nH]cn1)C(=O)N[C@@H](CC(C)C)C(=O)N[C@@H](CCCNC(=N)N)C(=O)N[C@@H](CCC(N)=O)C(=O)N[C@@H](Cc1ccc(O)cc1)C(=O)N[C@@H](CCC(=O)O)C(=O)N[C@@H](CC(C)C)C(=O)N[C@@H](CC(C)C)C(=O)O
On to B8, for which the “Shift (averaged)” value with human β2AR [1] amounted to 7. In the experiment with human β2AR [2], the “IC50 (nM) of isoproterenol, [3H]-DHA RLA” value was determined as 97.3 nM and the Shift was found to be 7.

B9: compound 67 (peptide)
peptide: RDIIQRMHLRQYEXL
HELM: PEPTIDE1{[ac].R.D.I.I.Q.R.M.H.L.R.Q.Y.E.[Cha].L}$$$$V2.0
SMILES: CC[C@H](C)[C@H](NC(=O)[C@H](CC(=O)O)NC(=O)[C@H](CCCNC(=N)N)NC(C)=O)C(=O)N[C@H](C(=O)N[C@@H](CCC(N)=O)C(=O)N[C@@H](CCCNC(=N)N)C(=O)N[C@@H](CCSC)C(=O)N[C@@H](Cc1c[nH]cn1)C(=O)N[C@@H](CC(C)C)C(=O)N[C@@H](CCCNC(=N)N)C(=O)N[C@@H](CCC(N)=O)C(=O)N[C@@H](Cc1ccc(O)cc1)C(=O)N[C@@H](CCC(=O)O)C(=O)N[C@@H](CC1CCCCC1)C(=O)N[C@@H](CC(C)C)C(=O)O)[C@@H](C)CC
For B9, in the experiment with human β2AR [4], the “IC50 (nM) of isoproterenol, [3H]-DHA RLA” value turned out to be 45.4 nM and the Shift amounted to 17. In addition, the “Shift (averaged)” value in the experiment with human β2AR [5] is 30.

B10: compound 6 (peptide)
peptide: Ac-FNDCRD[S5]IQR[S5]HLRQYELL-OH
modifications: bridges not given here
As to B10, the “Shift (averaged)” value in the experiment with human β2AR [1] was 9. Besides, in the experiment with human β2AR [3], the “IC50 (nM) of isoproterenol, [3H]-DHA RLA” value was 104 nM and the Shift is 8.

B11: compound 5 (peptide)
peptide: Ac-FNDCRDEIQRKHLRQYELL-OH
modifications: lactam 7-11
Regarding B11, in the experiment with human β2AR [1], the “Shift (averaged)” value worked out at 4. Also, in the experiment with human β2AR [7], the “IC50 (nM) of isoproterenol, [3H]-DHA RLA” value came out at 197 nM and the Shift is 4.

B12: compound 3 (peptide)
peptide: Ac-FNDCRDEIQRKHLRQYELL-OH
B12: the “Shift (averaged)” value in the experiment with human β2AR [1] is 2. Besides, in the experiment with human β2AR [7], the “IC50 (nM) of isoproterenol, [3H]-DHA RLA” value came out at 408 nM and the Shift was 2.

B13: compound 84 (peptide)
peptide: FNDCRDIIQRMHLRQYELX
HELM: PEPTIDE1{[ac].F.N.D.C.R.D.I.I.Q.R.M.H.L.R.Q.Y.E.L.[Cha]}$$$$V2.0
SMILES: CC[C@H](C)[C@H](NC(=O)[C@H](CC(=O)O)NC(=O)[C@H](CCCNC(=N)N)NC(=O)[C@H](CS)NC(=O)[C@H](CC(=O)O)NC(=O)[C@H](CC(N)=O)NC(=O)[C@H](Cc1ccccc1)NC(C)=O)C(=O)N[C@H](C(=O)N[C@@H](CCC(N)=O)C(=O)N[C@@H](CCCNC(=N)N)C(=O)N[C@@H](CCSC)C(=O)N[C@@H](Cc1c[nH]cn1)C(=O)N[C@@H](CC(C)C)C(=O)N[C@@H](CCCNC(=N)N)C(=O)N[C@@H](CCC(N)=O)C(=O)N[C@@H](Cc1ccc(O)cc1)C(=O)N[C@@H](CCC(=O)O)C(=O)N[C@@H](CC(C)C)C(=O)N[C@@H](CC1CCCCC1)C(=O)O)[C@@H](C)CC
For B13, in the experiment with human β2AR [5], the “Shift (averaged)” value is 12. Moreover, in the experiment with human β2AR [6], the “IC50 (nM) of isoproterenol, [3H]-DHA RLA” value was determined as 66.2 nM and the Shift is 12.

B14: compound 72 (peptide)
peptide: Ac-NARRIFNDCRDIIQRMHLRQYELL-OH
Take B14: the “Shift (averaged)” value with human β2AR [5] came to 47. Also, in the experiment with human β2AR [8], the “IC50 (nM) of isoproterenol, [3H]-DHA RLA” value turned out to be 22.2 nM and the Shift worked out at 46.

B15: compound 73 (peptide)
peptide: Ac-RRIFNDCRDIIQRMHLRQYELL-OH
B15: the “Shift (averaged)” value with human β2AR [5] was 19. In addition, in the experiment with human β2AR [8], the “IC50 (nM) of isoproterenol, [3H]-DHA RLA” value was 52.6 nM and the Shift amounted to 19.
